B1: TPR t1 (parent)
chain: GACCAAUCUGCCCUCAGAGCUCGAGAACAUCUUCGGAUGCAGAGGAGGCAGGCUUCGGUGGCGCGAUAGCGCCAACGUCCUCAACCUCCAAUGCAUCCCACCACAUGAUGAUGCCUGAAGAGCCUUGGUUUUUUG

The series covers variants of B1. The series can be described thus: polymerase ribozyme fitness, log enrichment relative to wild type (log ratio); higher = more active; in vitro selection for triplet polymerase activity. The method in brief: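 Only genotypes with ≥10 input reads and ≥1 read per output were kept after Illumina sequencing of input and output libraries. These libraries were PCR-built, transcribed mutants of each subunit of a heterodimeric triplet polymerase ribozyme, each put through one triplicate in vitro selection round with frozen incubation at −7 °C, gel excision of extended constructs, streptavidin-bead capture and RT-PCR. Fitness is a logarithmic ratio of genotype enrichment to wild-type enrichment, from inverse-variance-weighted replicate averages, with the logarithm in base 2.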
On to G61A C89A, for which the “polymerase ribozyme fitness (log ratio)” value is -1.25.

C88G G107A U130C: the “polymerase ribozyme fitness (log ratio)” value is -6.86.

Regarding A5G G45C G69A, the “polymerase ribozyme fitness (log ratio)” value is -2.95.

As to C72G A100U, the “polymerase ribozyme fitness (log ratio)” value was -0.592.

With G42C G61A, the “polymerase ribozyme fitness (log ratio)” value was -0.466.

Regarding C12U G47A C102A, the “polymerase ribozyme fitness (log ratio)” value is -2.63.

Consider G44U G71C G93A, for which the “polymerase ribozyme fitness (log ratio)” value is -3.04.

C3U G117A: the “polymerase ribozyme fitness (log ratio)” value is -1.5.

For G45U G63U A84G, the “polymerase ribozyme fitness (log ratio)” value is -3.63.

As to U21C C22A C101G G110A, the “polymerase ribozyme fitness (log ratio)” value was -6.05.

On to U9C G19A, for which the “polymerase ribozyme fitness (log ratio)” value is -1.95.

As for C99A C123G, the “polymerase ribozyme fitness (log ratio)” value was -4.92.

In the case of A18G C101G G117C, the “polymerase ribozyme fitness (log ratio)” value was -4.66.

U21G G47A C114A C123G U125A: the “polymerase ribozyme fitness (log ratio)” value is -1.52.

In the case of C49U C73U U78C G110U, the “polymerase ribozyme fitness (log ratio)” value was -2.87.

G39U A111C C124A: the “polymerase ribozyme fitness (log ratio)” value was found to be 0.34.

For C40A G42U G45U C56G C73U, the “polymerase ribozyme fitness (log ratio)” value was -4.17.

Turning to G42U A50G G57C G61U C80A C82A G120A, the “polymerase ribozyme fitness (log ratio)” value is -4.58.

G58U G71A G77A: the “polymerase ribozyme fitness (log ratio)” value was 0.0877.

Consider C12A A41U G45A C64A U87C A100C U116C, for which the “polymerase ribozyme fitness (log ratio)” value is -6.47.

A66U A84U G110C U130C: the “polymerase ribozyme fitness (log ratio)” value was -5.62.

As for G45A G69U U78C U112C U129A, the “polymerase ribozyme fitness (log ratio)” value stood at 0.415.

Regarding A41U U54C C124U, the “polymerase ribozyme fitness (log ratio)” value worked out at 1.

For the variant U7C C11U C73U G93U, the “polymerase ribozyme fitness (log ratio)” value is -1.53.

With G48A A50G G69U C76A U78C, the “polymerase ribozyme fitness (log ratio)” value was -2.05.

In the case of A66U U106A G117A, the “polymerase ribozyme fitness (log ratio)” value is -2.

Regarding A5U C13U U21C C88U G120U, the “polymerase ribozyme fitness (log ratio)” value was -0.379.

In the case of U112A C115A, the “polymerase ribozyme fitness (log ratio)” value worked out at 1.16.

For the variant U92G G122U C124U U126C, the “polymerase ribozyme fitness (log ratio)” value is -5.41.

As for G63A U96G C124U, the “polymerase ribozyme fitness (log ratio)” value turned out to be 0.174.

For the variant C8A C11G C64A A103C A119U G120A, the “polymerase ribozyme fitness (log ratio)” value was -6.83.

In the case of C73G A84U U112C, the “polymerase ribozyme fitness (log ratio)” value was found to be 0.269.

Regarding C13A A46U A74U, the “polymerase ribozyme fitness (log ratio)” value is -3.21.

Regarding C13G G117A, the “polymerase ribozyme fitness (log ratio)” value was -1.95.

With C8U G52U U54G G63A A118G, the “polymerase ribozyme fitness (log ratio)” value is -3.26.

For the variant C114A G117U, the “polymerase ribozyme fitness (log ratio)” value is -6.19.

As for G35C G120U, the “polymerase ribozyme fitness (log ratio)” value is -3.99.

For C28U G69U, the “polymerase ribozyme fitness (log ratio)” value is -0.614.

Take U9A G39C G61C U78A U87G G110U: the “polymerase ribozyme fitness (log ratio)” value was -2.

As for G63U C124U, the “polymerase ribozyme fitness (log ratio)” value worked out at 0.0528.

For C8U C12A A84C U116C, the “polymerase ribozyme fitness (log ratio)” value was 0.149.

Turning to U14C A46C C79U U106C, the “polymerase ribozyme fitness (log ratio)” value is -3.22.

Consider G36A G42A C70U C72U, for which the “polymerase ribozyme fitness (log ratio)” value is -4.5.

G45U C56A U59G C101G G120A G128A G135A: the “polymerase ribozyme fitness (log ratio)” value was -3.75.

As to C12G A46C C101U U132C, the “polymerase ribozyme fitness (log ratio)” value was -1.45.

As to C86U U112A C123U, the “polymerase ribozyme fitness (log ratio)” value stood at 0.628.

Take C56U C62G: the “polymerase ribozyme fitness (log ratio)” value was -5.27.

As to C40A C86U, the “polymerase ribozyme fitness (log ratio)” value was -1.9.

Turning to A6C C53U A74G C80U A118G, the “polymerase ribozyme fitness (log ratio)” value was -1.6.

In the case of G47U G120C U131G, the “polymerase ribozyme fitness (log ratio)” value came to 0.253.

Take C11G C20U G63A: the “polymerase ribozyme fitness (log ratio)” value was -2.21.

As for C12U A74U C80A C97U A121G U133A, the “polymerase ribozyme fitness (log ratio)” value is -0.836.

On to C76U C82A C88U, for which the “polymerase ribozyme fitness (log ratio)” value was -1.25.

In the case of C3U G63C U78C, the “polymerase ribozyme fitness (log ratio)” value is -3.19.

For the variant G69A A74G, the “polymerase ribozyme fitness (log ratio)” value was -5.42.

C56G U92C C123A: the “polymerase ribozyme fitness (log ratio)” value is -1.13.

Regarding C56A U112G, the “polymerase ribozyme fitness (log ratio)” value is -0.994.

Take G52U G60C: the “polymerase ribozyme fitness (log ratio)” value was -0.445.

On to G42A G44U C73A, for which the “polymerase ribozyme fitness (log ratio)” value was -1.69.

On to G39A C49U G57A A84U C97U G120C C124U G128U U132A, for which the “polymerase ribozyme fitness (log ratio)” value was -2.74.

As to G69C A118G, the “polymerase ribozyme fitness (log ratio)” value was -1.23.

Regarding U78C A83C, the “polymerase ribozyme fitness (log ratio)” value is 0.0151.

On to A74U U78G U131G, for which the “polymerase ribozyme fitness (log ratio)” value is -1.29.

In the case of C8U C70A C115U G117A, the “polymerase ribozyme fitness (log ratio)” value is -4.95.

As to A2G C70U U96A, the “polymerase ribozyme fitness (log ratio)” value is -1.87.

Regarding U7A G36U G61U C124G, the “polymerase ribozyme fitness (log ratio)” value worked out at 0.266.

As for A50C G77U C115G, the “polymerase ribozyme fitness (log ratio)” value was -1.98.

Take A2U C40A G128U: the “polymerase ribozyme fitness (log ratio)” value was -4.11.

On to C88A G113C G122A U129A, for which the “polymerase ribozyme fitness (log ratio)” value was -5.29.

As for G69U C124G, the “polymerase ribozyme fitness (log ratio)” value came out at 1.3.

Regarding G45U G61A C62U C79A, the “polymerase ribozyme fitness (log ratio)” value was -2.55.

As for C40A C56U, the “polymerase ribozyme fitness (log ratio)” value was -0.58.

In the case of C20G C76U, the “polymerase ribozyme fitness (log ratio)” value is -3.75.

As to A27C C72U C124A, the “polymerase ribozyme fitness (log ratio)” value was -1.07.

With G52C G61A C62U C85U U96G G117A, the “polymerase ribozyme fitness (log ratio)” value was -4.79.

For the variant C85G G128A, the “polymerase ribozyme fitness (log ratio)” value was -2.55.

For G60C C82G, the “polymerase ribozyme fitness (log ratio)” value was -0.49.

C8U C12A G19U U59C A75U G120A: the “polymerase ribozyme fitness (log ratio)” value is -1.37.

As to C11U U54A G60A G110C A121U, the “polymerase ribozyme fitness (log ratio)” value is -4.92.

G60A A83C: the “polymerase ribozyme fitness (log ratio)” value is -0.195.

Turning to A26G C28G C70G C85U C98U G107U A119G G122A, the “polymerase ribozyme fitness (log ratio)” value was -6.27.

Consider G17U G71U, for which the “polymerase ribozyme fitness (log ratio)” value was -2.1.

On to C12U C15U U38C A43C C123A, for which the “polymerase ribozyme fitness (log ratio)” value is -1.45.

Source of the values: the RNAGym collection of RNA variant scans (doi:10.1073/pnas.2313332121).
